Source: patent US11549123B2, “Plant EPSP synthases and methods of use” (PIONEER HI-BRED INTERNATIONAL, INC., priority 2015, dated 2023)
Substitutions are numbered along the chain they refer to. Numbers in names are those of the source.

Assays:
[1] = substrate: C=C(OP(=O)(O)O)C(=O)O; assay: EPSPS substrate saturation kinetics, WT-FS-E; assay type: biochemical, Zea mays; conditions: other: PEP varied; pH 7.0
Description: (§1) EPSPS activity was determined by quantifying the phosphate generated from the EPSPS reaction. Release of inorganic phosphate was coupled to reaction with 2-amino-6-mercapto-7-methylpurine ribonucleoside, catalyzed by purine-nucleoside phosphorylase (M R Webb, Proc. Natl. Acad. Sci. 89:4884-4887, 1992). The absorbance change that occurs was monitored at 360 nm, where the extinction is 11,200 M^−1 cm^−1, with a Spectramax plate reader (Molecular Devices). To determine kinetic parameters, the varied substrate was present at seven concentrations (the eighth being the blank, containing no substrate) ranging from 4 to 400 uM and the unvaried substrate present at saturation. Six microliters of 50-fold concentrated stock solutions of the varied substrate were placed in the wells of the 96-well assay plate and reactions were started with the addition of a mixture containing 25 mM Hepes, pH 7, 100 mM KCl, 0.3 mM 2-amino-6-mercapto-7-methylpurine ribonucleosde, 1 uM (1 unit/ml) purine-nucleoside phosphorylase (Sigma N8264) and 200 uM of the non-varied substrate. Reactions were monitored with a Spectramax plate reader. […] KI was then calculated from the following form of the Michaelis-Menten equation for competitive inhibition: KI=KM[I]/(KM app−KM) KM approximates the dissociation constant of the enzyme-substrate complex while kcat is the rate of conversion of substrate to product when the substrate concentration is saturating. kcat/KM is a widely accepted parameter for catalytic efficiency when substrate concentration is low (˜KM). […] The parameter kcat/KM×KI is used to quantify both catalytic efficiency and insensitivity and thus the overall fitness of the enzyme. […]
(§2) The vector DNA of the library was transformed into the BL21(DE3) Tuner AroA knockout strain and the cells were plated onto M9 medium containing 50 mM glyphosate. A small aliquot of the transformed cells was plated on LB, by which it was determined that 1.1×10^8 colony forming units, or 20% of the theoretical library size, were plated and screened. […]

[2] = substrate: C=C(OP(=O)(O)O)C(=O)O; assay: EPSPS substrate saturation kinetics, WT-FS-E2; assay type: biochemical, Zea mays; conditions: other: PEP varied; pH 7.0
Description: EPSPS activity was determined by quantifying the phosphate generated from the EPSPS reaction. Release of inorganic phosphate was coupled to reaction with 2-amino-6-mercapto-7-methylpurine ribonucleoside, catalyzed by purine-nucleoside phosphorylase (M R Webb, Proc. Natl. Acad. Sci. 89:4884-4887, 1992). The absorbance change that occurs was monitored at 360 nm, where the extinction is 11,200 M^−1 cm^−1, with a Spectramax plate reader (Molecular Devices). To determine kinetic parameters, the varied substrate was present at seven concentrations (the eighth being the blank, containing no substrate) ranging from 4 to 400 uM and the unvaried substrate present at saturation. Six microliters of 50-fold concentrated stock solutions of the varied substrate were placed in the wells of the 96-well assay plate and reactions were started with the addition of a mixture containing 25 mM Hepes, pH 7, 100 mM KCl, 0.3 mM 2-amino-6-mercapto-7-methylpurine ribonucleosde, 1 uM (1 unit/ml) purine-nucleoside phosphorylase (Sigma N8264) and 200 uM of the non-varied substrate. Reactions were monitored with a Spectramax plate reader. […] KI was then calculated from the following form of the Michaelis-Menten equation for competitive inhibition: KI=KM[I]/(KM app−KM) KM approximates the dissociation constant of the enzyme-substrate complex while kcat is the rate of conversion of substrate to product when the substrate concentration is saturating. kcat/KM is a widely accepted parameter for catalytic efficiency when substrate concentration is low (˜KM). […] The parameter kcat/KM×KI is used to quantify both catalytic efficiency and insensitivity and thus the overall fitness of the enzyme.
as §2

[3] = substrate: C=C(OP(=O)(O)O)C(=O)O; assay: purified protein, by the assay type; conditions: pH 7.0
[4] = substrate: C=C(OP(=O)(O)O)C(=O)O; assay: EPSPS substrate saturation kinetics, WT-FS-B; assay type: biochemical, Zea mays; conditions: other: PEP varied; pH 7.0
Description: as §1, §2

[5] = substrate: C=C(OP(=O)(O)O)C(=O)O; assay: EPSPS substrate saturation kinetics, WT-FS-D; assay type: biochemical, Zea mays; conditions: other: PEP varied; pH 7.0
Description: as §1, §2

[6] = test system: Glycine max (93Y21) hairy root; assay: Hairy root growth from transformed soybean cotyledons with or without 25 uM glyphosate; assay type: cell-based; conditions: constructs containing the UBQ10 promoter
sorghum EPSPS = assay: EPSPS reaction rates at 200 uM PEP and S3P, and at 30 uM substrates with 1 mM glyphosate; assay type: biochemical, Sorghum halepense; conditions: Sor ha; for Reaction rate, 200 uM, no glyph: PEP and S3P both at 200 uM, no glyphosate; for Reaction rate, 30 uM, 1 mM glyph: substrates at 30 uM, glyphosate at 1 mM
Description: EPSPS activity was determined by quantifying the phosphate generated from the EPSPS reaction. Release of inorganic phosphate was coupled to reaction with 2-amino-6-mercapto-7-methylpurine ribonucleoside, catalyzed by purine-nucleoside phosphorylase (M R Webb, Proc. Natl. Acad. Sci. 89:4884-4887, 1992). The absorbance change that occurs was monitored at 360 nm, where the extinction is 11,200 M^−1 cm^−1, with a Spectramax plate reader (Molecular Devices). To determine kinetic parameters, the varied substrate was present at seven concentrations (the eighth being the blank, containing no substrate) ranging from 4 to 400 uM and the unvaried substrate present at saturation. Six microliters of 50-fold concentrated stock solutions of the varied substrate were placed in the wells of the 96-well assay plate and reactions were started with the addition of a mixture containing 25 mM Hepes, pH 7, 100 mM KCl, 0.3 mM 2-amino-6-mercapto-7-methylpurine ribonucleosde, 1 uM (1 unit/ml) purine-nucleoside phosphorylase (Sigma N8264) and 200 uM of the non-varied substrate. Reactions were monitored with a Spectramax plate reader. The Michaelis-Menten kinetics protocol of the Spectramax software was customized for the substrate concentrations used. The software returns values of KM and Vmax using the Lineweaver-Burke transformation of the Michaelis-Menten equation. To determine kcat, Vmax (uM/min) was divided by the enzyme concentration (uM). […] KI was then calculated from the following form of the Michaelis-Menten equation for competitive inhibition: KI=KM[I]/(KM app−KM) KM approximates the dissociation constant of the enzyme-substrate complex while kcat is the rate of conversion of substrate to product when the substrate concentration is saturating. kcat/KM is a widely accepted parameter for catalytic efficiency when substrate concentration is low (˜KM). […] The parameter kcat/KM×KI is used to quantify both catalytic efficiency and insensitivity and thus the overall fitness of the enzyme.
Likewise, the mutations present in maize EPSPS 123-C1 (See Table 8) were mapped onto the amino acid sequences of sorghum (SEQ ID NO:23) and the proteins were produced and purified as above.

[7] = other: substrate saturation, Zm-G102A
[8] = other: substrate saturation, Zm-P107L
[9] = other: substrate saturation, Zm native

B1: Zea mays EPSPS variant WT-FS-E (102A 302S 391G 438R) (Zea mays; E301S/E390G/G101A/V437R) (protein)
chain: MAGAEEIVLQPIKEISGTVKLPGSKSLSNRILLLAALSEGTTVVDNLLNSEDVHYMLGALRTLGLSVEADKAAKRAVVVGCGGKFPVEDAKEEVQLFLGNAATAMRPLTAAVTAAGGNATYVLDGVPRMRERPIGDLVVGLKQLGADVDCFLGTDCPPVRVNGIGGLPGGKVKLSGSISSQYLSALLMAAPLALGDVEIEIIDKLISIPYVEMTLRLMERFGVKAEHSDSWDRFYIKGGQKYKSPKNAYVEGDASSASYFLAGAAITGGTVTVEGCGTTSLQGDVKFAEVLEMMGAKVTWTSTSVTVTGPPREPFGRKHLKAIDVNMNKMPDVAMTLAVVALFADGPTAIRDVASWRVKETERMVAIRTELTKLGASVEEGPDYCIITPPGKLNVTAIDTYDDHRMAMAFSLAACAEVPVTIRDPGCTRKTFPDYFDRLSTFVKN
- Km [1]: 165 µM
- kcat [1]: 6.63 s⁻¹
- kcat/Km [1]: 2.41 min^−1uM^−1

B2: Zea mays EPSPS variant WT-FS-E2 (102A 302S 391G 438R I208L) (Zea mays; E301S/E390G/G101A/I207L/V437R) (protein)
chain: B1 chain with I208L
- Km [2]: 87.7 µM
- kcat [2]: 9.93 s⁻¹
- kcat/Km [2]: 6.80 min^−1uM^−1

B3: Zea mays EPSPS variant G102A (Zea mays; G101A) (protein)
chain: B1 chain with S302E, G391E, R438V
- Km ([3]; other: PEP varied): 310 µM
- Km [3, 7]: 407 µM
- kcat [3, 7]: 14.3 s⁻¹

B4: Zea mays EPSPS variant P107L (Zea mays; P106L) (protein)
chain: B1 chain with A102G, P107L, S302E, G391E, R438V
- Km ([3]; other: PEP varied): 67.1 µM
- Km [3, 8]: 59.7 µM
- kcat [3, 8]: 22.93 s⁻¹

B5: Zea mays EPSPS variant WT-FS-B (103I 107S 278G 338S) (Zea mays; A337S/P106S/T102I/T277G) (protein)
chain: B1 chain with A102G, T103I, P107S, T278G, S302E, A338S, G391E, R438V
- Km [4]: 27.7 µM
- kcat [4]: 1.62 s⁻¹
- kcat/Km [4]: 3.57 min^−1uM^−1

B6: Zea mays EPSPS variant WT-FS-D (101S 107L 302S 338S) (Zea mays; A100S/A337S/E301S/P106L) (protein)
chain: B1 chain with A101S, A102G, P107L, A338S, G391E, R438V
- Km [5]: 20.5 µM
- kcat [5]: 30.9 s⁻¹
- kcat/Km [5]: 92.3 min^−1uM^−1

B7: Zea mays EPSPS, native, SEQ ID NO:2 (Zea mays) (protein)
chain: B1 chain with A102G, S302E, G391E, R438V
- Km [3, 9]: 11.0 µM
- kcat [3, 9]: 17.27 s⁻¹

B8: 868-H6: maize EPSPS with A2R, A4W, A72Q, K84R, L98C, G102A, I208L, T279A, E302S, T361S, E391G, D402G, A416G, V438R, T441Q (protein)
chain: MRGWEEIVLQPIKEISGTVKLPGSKSLSNRILLLAALSEGTTVVDNLLNSEDVHYMLGALRTLGLSVEADKQAKRAVVVGCGGRFPVEDAKEEVQLFCGNAATAMRPLTAAVTAAGGNATYVLDGVPRMRERPIGDLVVGLKQLGADVDCFLGTDCPPVRVNGIGGLPGGKVKLSGSISSQYLSALLMAAPLALGDVEIEIIDKLISLPYVEMTLRLMERFGVKAEHSDSWDRFYIKGGQKYKSPKNAYVEGDASSASYFLAGAAITGGTVTVEGCGTASLQGDVKFAEVLEMMGAKVTWTSTSVTVTGPPREPFGRKHLKAIDVNMNKMPDVAMTLAVVALFADGPTAIRDVASWRVKESERMVAIRTELTKLGASVEEGPDYCIITPPGKLNVTAIDTYGDHRMAMAFSLAACGEVPVTIRDPGCTRKTFPDYFDRLSQFVKN
modifications: maize clone 868-H6
notes: maize EPSPS with A2R, A4W, A72Q, K84R, L98C, G102A, I208L, T279A, E302S, T361S, E391G, D402G, A416G, V438R, T441Q
- hairy root growth in the presence of 25 uM glyphosate [6]: generated hairy roots

B9: 771-C2: maize EPSPS with A4W, H54M, L98C, G102A, K173R, I208L, K243E, E302S, T361S, E391P, D402G, A416G, V438R, S440R, T441Q, F442V (protein)
chain: B8 chain with R2A, H54M, Q72A, R84K, K173R, K243E, A279T, G391P, S440R, F442V
modifications: maize clone 771-C2
notes: maize EPSPS with A4W, H54M, L98C, G102A, K173R, I208L, K243E, E302S, T361S, E391P, D402G, A416G, V438R, S440R, T441Q, F442V
- hairy root growth in the presence of 25 uM glyphosate [6]: generated hairy roots

B10: Sor ha, native: native EPSPS from sorghum (Sorghum halepense) (protein)
chain: B1 chain with M1A, R61N, A72V, A102G, V161I, S302E, E313Q, G391E, R438V
modifications: Sorghum halapense
- Reaction rate, 200 uM, no glyph (sorghum EPSPS): 1376
- Reaction rate, 30 uM, 1 mM glyph (sorghum EPSPS): −2.2

B11: Sor ha C1 mutations: mutated version of the EPSPS sequence from sorghum that contains the 123-C1 mutations (protein)
chain: ARGWEEIVLQPIKEISGTVKLPGSKSLSNRILLLAALSEGTTVVDNLLNSEDVHYMLGALNTLGLSVEADKVAKRAVVVGCGGRFPVEDAKEEVQLFCGNAATAMRPLTAAVTAAGGNATYVLDGVPRMRERPIGDLVVGLKQLGADVDCFLGTDCPPVRINGIGGLPGGKVKLSGSISSQYLSALLMAAPLALGDVEIEIIDKLISLPYVEMTLRLMERFGVKAEHSDSWDRFYIKGGQKYESPKNAYVEGDASSASYFLAGAAITGGTVTVEGCGTTSLQGDVKFAEVLEMMGAKVTWTETSVTVTGPPRQPFGRKHLKAIDVNMNKMPDVAMTLAVVALFADGPTAIRDVASWRVKETERMVAIRTELTKLGASVEEGPDYCIITPPPKLNVTAIDTYGDHRMAMAFSLAACAEVPVTIRDPGCTRKTFPDYFDVLSTFVKN
modifications: Sorghum halapense H6T5X2 with C1 mutations
- Reaction rate, 200 uM, no glyph (sorghum EPSPS): 356
- Reaction rate, 30 uM, 1 mM glyph (sorghum EPSPS): 60.0
